# Measured values published in patent US20120237442A1 (published 2012).
# Experiments:
# [1] = molecular target: T1, human CD20 (human, UniProt P11836 1-297); test: flow cytometry on live NHL cells, reference veltuzumab
# T1 construct: whole, on cells
# T1 sequence (looked up): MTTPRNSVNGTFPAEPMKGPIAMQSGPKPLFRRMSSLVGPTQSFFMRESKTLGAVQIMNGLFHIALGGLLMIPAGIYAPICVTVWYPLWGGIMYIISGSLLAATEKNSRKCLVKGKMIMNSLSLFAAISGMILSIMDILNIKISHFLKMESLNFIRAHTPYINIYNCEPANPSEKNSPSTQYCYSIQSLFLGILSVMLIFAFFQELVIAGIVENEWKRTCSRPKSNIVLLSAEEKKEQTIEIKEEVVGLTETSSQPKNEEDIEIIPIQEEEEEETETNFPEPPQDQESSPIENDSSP
# [2] = molecular target: T1, human CD20; test: ELISA, reference veltuzumab
binder,measurement,setting,value
"20-(20)-(20) (antibody, DNL complex locked by disulfide bridges between the cysteines of AD2 and DDD2. Stoichiometry: 2 IgG-AD2 heavy chains, 4 Fd-DDD2 chains, 6 kappa chains. Each unique chain is listed once., One Fc and 6 anti-CD20 Fabs; also called Hex-hA20; HexAb of veltuzumab) heavy 1: not shown heavy 2: not shown light: DIQLTQSPSSLSASVGDRVTMTCRASSSVSYIHWFQQKPGKAPKPWIYATSNLASGVPVRFSGSGSGTDYTFTISSLQPEDIATYYCQQWTSNPPTFGGGTKLEIKRTVAAPSVFIFPPSDEQLKSGTASVVCLLNNFYPREAKVQWKVDNALQSGNSQESVTEQDSKDSTYSLSSTLTLSKADYEKHKVYACEVTHQGLSSPVTKSFNRGEC",fold slower off-rate compared to veltuzumab,[1],3 fold
same,fold higher binding avidity compared to veltuzumab,[2],3 fold
